# B1: GLS3000 Y32A one-arm antibody (antibody, human IgG1, kappa, L234A L235A, N297A, name in Kabat numbering)
# heavy: QVQLVESGGGVVQPGRSLRLSCAASGFTFSNAWMHWVRQAPGKGLEWVAQIKAKSNNYATYYAESVKGRFTISRDDSKNSLYLQMNSLKTEDTAVYYCRYVHYGAYYGVDAWGQGTTVTVSSASTKGPSVFPLAPSSKSTSGGTAALGCLVKDYFPEPVTVSWNSGALTSGVHTFPAVLQSSGLYSLSSVVTVPSSSLGTQTYICNVNHKPSNTKVDKKVEPKSCDKTHTCPPCPAPEAAGGPSVFLFPPKPKDTLMISRTPEVTCVVVDVSHEDPEVKFNWYVDGVEVHNAKTKPREEQYASTYRVVSVLTVLHQDWLNGKEYKCKVSNKALPAPIEKTISKAKGQPREPQVYTLPPSRCELTKNQVSLSCAVKGFYPSDIAVEWESNGQPENNYKTTPPVLDSDGSFFLVSKLTVDKSRWQQGNVFSCSVMHEALHNHYTQKSLSLSPDYKDDDDK
# chain: EPKSSDKTHTCPPCPAPELLGGPSVFLFPPKPKDTLMISRTPEVTCVVVDVSHEDPEVKFNWYVDGVEVHNAKTKPREEQYNSTYRVVSVLTVLHQDWLNGKEYKCKVSNKALPAPIEKTISKAKGQPREPQVCTLPPSRDELTKNQVSLWCLVKGFYPSDIAVEWESNGQPENNYKTTPPVLDSDGSFFLYSKLTVDKSRWQQGNVFSCSVMHEALHNRYTQKSLSLSP
# light: DIVMTQSPLSLPVTPGEPASISCRSSQSLVHSNRNTALHWYQQKPGQAPRLLIYKVSNRFSGVPDRFSGSGSGTDFTLKISRVEAEDVGVYYCGQGTQVPYTFGQGTKLEIKRTVAAPSVFIFPPSDEQLKSGTASVVCLLNNFYPREAKVQWKVDNALQSGNSQESVTEQDSKDSTYSLSSTLTLSKADYEKHKVYACEVTHQGLSSPVTKSFNRGEC
# B2: GLS3000 Y96E one-arm antibody (antibody, human IgG1, kappa, L234A L235A, N297A, name in Kabat numbering)
# heavy: QVQLVESGGGVVQPGRSLRLSCAASGFTFSNAWMHWVRQAPGKGLEWVAQIKAKSNNYATYYAESVKGRFTISRDDSKNSLYLQMNSLKTEDTAVYYCRYVHYGAYYGVDAWGQGTTVTVSSASTKGPSVFPLAPSSKSTSGGTAALGCLVKDYFPEPVTVSWNSGALTSGVHTFPAVLQSSGLYSLSSVVTVPSSSLGTQTYICNVNHKPSNTKVDKKVEPKSCDKTHTCPPCPAPEAAGGPSVFLFPPKPKDTLMISRTPEVTCVVVDVSHEDPEVKFNWYVDGVEVHNAKTKPREEQYASTYRVVSVLTVLHQDWLNGKEYKCKVSNKALPAPIEKTISKAKGQPREPQVYTLPPSRCELTKNQVSLSCAVKGFYPSDIAVEWESNGQPENNYKTTPPVLDSDGSFFLVSKLTVDKSRWQQGNVFSCSVMHEALHNHYTQKSLSLSPDYKDDDDK
# chain: EPKSSDKTHTCPPCPAPELLGGPSVFLFPPKPKDTLMISRTPEVTCVVVDVSHEDPEVKFNWYVDGVEVHNAKTKPREEQYNSTYRVVSVLTVLHQDWLNGKEYKCKVSNKALPAPIEKTISKAKGQPREPQVCTLPPSRDELTKNQVSLWCLVKGFYPSDIAVEWESNGQPENNYKTTPPVLDSDGSFFLYSKLTVDKSRWQQGNVFSCSVMHEALHNRYTQKSLSLSP
# light: DIVMTQSPLSLPVTPGEPASISCRSSQSLVHSNRNTYLHWYQQKPGQAPRLLIYKVSNRFSGVPDRFSGSGSGTDFTLKISRVEAEDVGVYYCGQGTQVPETFGQGTKLEIKRTVAAPSVFIFPPSDEQLKSGTASVVCLLNNFYPREAKVQWKVDNALQSGNSQESVTEQDSKDSTYSLSSTLTLSKADYEKHKVYACEVTHQGLSSPVTKSFNRGEC
# B3: GLS3000 Y32P one-arm antibody (antibody, human IgG1, kappa, L234A L235A, N297A, name in Kabat numbering)
# heavy: QVQLVESGGGVVQPGRSLRLSCAASGFTFSNAWMHWVRQAPGKGLEWVAQIKAKSNNYATYYAESVKGRFTISRDDSKNSLYLQMNSLKTEDTAVYYCRYVHYGAYYGVDAWGQGTTVTVSSASTKGPSVFPLAPSSKSTSGGTAALGCLVKDYFPEPVTVSWNSGALTSGVHTFPAVLQSSGLYSLSSVVTVPSSSLGTQTYICNVNHKPSNTKVDKKVEPKSCDKTHTCPPCPAPEAAGGPSVFLFPPKPKDTLMISRTPEVTCVVVDVSHEDPEVKFNWYVDGVEVHNAKTKPREEQYASTYRVVSVLTVLHQDWLNGKEYKCKVSNKALPAPIEKTISKAKGQPREPQVYTLPPSRCELTKNQVSLSCAVKGFYPSDIAVEWESNGQPENNYKTTPPVLDSDGSFFLVSKLTVDKSRWQQGNVFSCSVMHEALHNHYTQKSLSLSPDYKDDDDK
# chain: EPKSSDKTHTCPPCPAPELLGGPSVFLFPPKPKDTLMISRTPEVTCVVVDVSHEDPEVKFNWYVDGVEVHNAKTKPREEQYNSTYRVVSVLTVLHQDWLNGKEYKCKVSNKALPAPIEKTISKAKGQPREPQVCTLPPSRDELTKNQVSLWCLVKGFYPSDIAVEWESNGQPENNYKTTPPVLDSDGSFFLYSKLTVDKSRWQQGNVFSCSVMHEALHNRYTQKSLSLSP
# light: DIVMTQSPLSLPVTPGEPASISCRSSQSLVHSNRNTPLHWYQQKPGQAPRLLIYKVSNRFSGVPDRFSGSGSGTDFTLKISRVEAEDVGVYYCGQGTQVPYTFGQGTKLEIKRTVAAPSVFIFPPSDEQLKSGTASVVCLLNNFYPREAKVQWKVDNALQSGNSQESVTEQDSKDSTYSLSSTLTLSKADYEKHKVYACEVTHQGLSSPVTKSFNRGEC
# B4: GLS3000 Y32F one-arm antibody (antibody, human IgG1, kappa, L234A L235A, N297A, name in Kabat numbering)
# heavy: QVQLVESGGGVVQPGRSLRLSCAASGFTFSNAWMHWVRQAPGKGLEWVAQIKAKSNNYATYYAESVKGRFTISRDDSKNSLYLQMNSLKTEDTAVYYCRYVHYGAYYGVDAWGQGTTVTVSSASTKGPSVFPLAPSSKSTSGGTAALGCLVKDYFPEPVTVSWNSGALTSGVHTFPAVLQSSGLYSLSSVVTVPSSSLGTQTYICNVNHKPSNTKVDKKVEPKSCDKTHTCPPCPAPEAAGGPSVFLFPPKPKDTLMISRTPEVTCVVVDVSHEDPEVKFNWYVDGVEVHNAKTKPREEQYASTYRVVSVLTVLHQDWLNGKEYKCKVSNKALPAPIEKTISKAKGQPREPQVYTLPPSRCELTKNQVSLSCAVKGFYPSDIAVEWESNGQPENNYKTTPPVLDSDGSFFLVSKLTVDKSRWQQGNVFSCSVMHEALHNHYTQKSLSLSPDYKDDDDK
# chain: EPKSSDKTHTCPPCPAPELLGGPSVFLFPPKPKDTLMISRTPEVTCVVVDVSHEDPEVKFNWYVDGVEVHNAKTKPREEQYNSTYRVVSVLTVLHQDWLNGKEYKCKVSNKALPAPIEKTISKAKGQPREPQVCTLPPSRDELTKNQVSLWCLVKGFYPSDIAVEWESNGQPENNYKTTPPVLDSDGSFFLYSKLTVDKSRWQQGNVFSCSVMHEALHNRYTQKSLSLSP
# light: DIVMTQSPLSLPVTPGEPASISCRSSQSLVHSNRNTFLHWYQQKPGQAPRLLIYKVSNRFSGVPDRFSGSGSGTDFTLKISRVEAEDVGVYYCGQGTQVPYTFGQGTKLEIKRTVAAPSVFIFPPSDEQLKSGTASVVCLLNNFYPREAKVQWKVDNALQSGNSQESVTEQDSKDSTYSLSSTLTLSKADYEKHKVYACEVTHQGLSSPVTKSFNRGEC
# B5: GLS3000 Y96D one-arm antibody (antibody, human IgG1, kappa, L234A L235A, N297A, name in Kabat numbering)
# heavy: QVQLVESGGGVVQPGRSLRLSCAASGFTFSNAWMHWVRQAPGKGLEWVAQIKAKSNNYATYYAESVKGRFTISRDDSKNSLYLQMNSLKTEDTAVYYCRYVHYGAYYGVDAWGQGTTVTVSSASTKGPSVFPLAPSSKSTSGGTAALGCLVKDYFPEPVTVSWNSGALTSGVHTFPAVLQSSGLYSLSSVVTVPSSSLGTQTYICNVNHKPSNTKVDKKVEPKSCDKTHTCPPCPAPEAAGGPSVFLFPPKPKDTLMISRTPEVTCVVVDVSHEDPEVKFNWYVDGVEVHNAKTKPREEQYASTYRVVSVLTVLHQDWLNGKEYKCKVSNKALPAPIEKTISKAKGQPREPQVYTLPPSRCELTKNQVSLSCAVKGFYPSDIAVEWESNGQPENNYKTTPPVLDSDGSFFLVSKLTVDKSRWQQGNVFSCSVMHEALHNHYTQKSLSLSPDYKDDDDK
# chain: EPKSSDKTHTCPPCPAPELLGGPSVFLFPPKPKDTLMISRTPEVTCVVVDVSHEDPEVKFNWYVDGVEVHNAKTKPREEQYNSTYRVVSVLTVLHQDWLNGKEYKCKVSNKALPAPIEKTISKAKGQPREPQVCTLPPSRDELTKNQVSLWCLVKGFYPSDIAVEWESNGQPENNYKTTPPVLDSDGSFFLYSKLTVDKSRWQQGNVFSCSVMHEALHNRYTQKSLSLSP
# light: DIVMTQSPLSLPVTPGEPASISCRSSQSLVHSNRNTYLHWYQQKPGQAPRLLIYKVSNRFSGVPDRFSGSGSGTDFTLKISRVEAEDVGVYYCGQGTQVPDTFGQGTKLEIKRTVAAPSVFIFPPSDEQLKSGTASVVCLLNNFYPREAKVQWKVDNALQSGNSQESVTEQDSKDSTYSLSSTLTLSKADYEKHKVYACEVTHQGLSSPVTKSFNRGEC
# B6: GLS3000 Y32D one-arm antibody (antibody, human IgG1, kappa, L234A L235A, N297A, name in Kabat numbering)
# heavy: QVQLVESGGGVVQPGRSLRLSCAASGFTFSNAWMHWVRQAPGKGLEWVAQIKAKSNNYATYYAESVKGRFTISRDDSKNSLYLQMNSLKTEDTAVYYCRYVHYGAYYGVDAWGQGTTVTVSSASTKGPSVFPLAPSSKSTSGGTAALGCLVKDYFPEPVTVSWNSGALTSGVHTFPAVLQSSGLYSLSSVVTVPSSSLGTQTYICNVNHKPSNTKVDKKVEPKSCDKTHTCPPCPAPEAAGGPSVFLFPPKPKDTLMISRTPEVTCVVVDVSHEDPEVKFNWYVDGVEVHNAKTKPREEQYASTYRVVSVLTVLHQDWLNGKEYKCKVSNKALPAPIEKTISKAKGQPREPQVYTLPPSRCELTKNQVSLSCAVKGFYPSDIAVEWESNGQPENNYKTTPPVLDSDGSFFLVSKLTVDKSRWQQGNVFSCSVMHEALHNHYTQKSLSLSPDYKDDDDK
# chain: EPKSSDKTHTCPPCPAPELLGGPSVFLFPPKPKDTLMISRTPEVTCVVVDVSHEDPEVKFNWYVDGVEVHNAKTKPREEQYNSTYRVVSVLTVLHQDWLNGKEYKCKVSNKALPAPIEKTISKAKGQPREPQVCTLPPSRDELTKNQVSLWCLVKGFYPSDIAVEWESNGQPENNYKTTPPVLDSDGSFFLYSKLTVDKSRWQQGNVFSCSVMHEALHNRYTQKSLSLSP
# light: DIVMTQSPLSLPVTPGEPASISCRSSQSLVHSNRNTDLHWYQQKPGQAPRLLIYKVSNRFSGVPDRFSGSGSGTDFTLKISRVEAEDVGVYYCGQGTQVPYTFGQGTKLEIKRTVAAPSVFIFPPSDEQLKSGTASVVCLLNNFYPREAKVQWKVDNALQSGNSQESVTEQDSKDSTYSLSSTLTLSKADYEKHKVYACEVTHQGLSSPVTKSFNRGEC
# Molecular target: T1, CD3ε homodimer protein (human, UniProt P07766 23-126, limits assumed)
# T1 construct: also called CD3 (CD3ε)
# Assay: SPR Biacore T200, CD3ε homodimer on chip;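 note: Light-chain single-residue variant antibodies injected over amine-coupled CD3ε homodimer on a CM4 chip at 25 °C, bound amount divided by that of the GLS3000-containing antibody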
# T1 sequence (P07766 23-126 limits assumed): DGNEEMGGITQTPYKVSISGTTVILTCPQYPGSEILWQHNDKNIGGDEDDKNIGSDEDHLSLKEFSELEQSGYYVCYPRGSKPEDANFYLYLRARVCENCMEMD
row,Binder,ratio of amount bound vs unaltered GLS3000
1,B1,0.24
2,B2,0.17
3,B3,0.24
4,B4,0.29
5,B5,0.17
6,B6,0.23

# Source: US20260049138A1 (Chugai, published 2026)
